From PMC7933433

How the values were obtained:
[1] = molecular target: PGR5a fused to the N-terminal part of YFP (PGR5a-YFP^n) (cucumber (Cucumis sativus L.)); assay: split reporter (BiFC, NanoBiT); halves of YFP, transient expression in N. benthamiana leaves, confocal microscopy on the third day; also after 30 min in the dark (state 1) or red light (state 2)
[2] = molecular target: cyt b6f complex of cucumber thylakoid membranes (cucumber (endogenous in cucumber thylakoids)); assay: native gel or EMSA; blue native PAGE of thylakoid membranes (cucumber or tobacco) dissolved in an equal volume of 2% DM, 4 °C, followed by immunoblotting with anti-PGR5; leaf discs also arrested in state 1 or state 2, dark or red light, or incubated with Put

Substance | YFP fluorescence intensity (BiFC), stronger in state 2 than in state 1 [1] [%] | further results
Lhcb3 fused to the C-terminal part of YFP (Lhcb3-YFP^c) (natural protein) | 64 | 
PetC fused to the C-terminal part of YFP (PetC-YFP^c) (natural protein) |  | YFP fluorescence intensity (BiFC), stronger in state 1 than in state 2 [1]: 64%
PsaH fused to the C-terminal part of YFP (PsaH-YFP^c) (natural protein) | 67 | 
native PGR5 protein of cucumber thylakoid membranes (natural protein) |  | PGR5 abundance in the cyt b6f complex, higher in state 1 than in state 2 [2]: 40%
